Series [1] concerns HeLa Kyoto. Kind of series: thermal stability score vs G1/S (z-score of summed log2 fold changes over temperatures); higher = more thermally stable than in G1/S.
Series [2] has as its system HeLa Kyoto. The series can be described thus: solubility change mitosis vs G1/S (difference of NP-40 vs SDS log2 ratios) (log2 ratio difference); higher = more soluble in mitosis.
The subject of series [3] is HeLa Kyoto. Kind of series: melting temperature (median over replicates), in situ; higher = more thermally stable.
The subject of series [4] is HeLa Kyoto. The series can be described thus: solubility in G1/S (NP-40 vs SDS abundance) (log2 ratio); higher = more soluble. As to conditions: cell cycle stage: G1/S.
The mark [5] stands for this setting: cell cycle stage: early G1 (4.5 h after nocodazole release).

Experimental findings from the supplement of paper PMC5998384 are described below.
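For melting temperature (median over replicates), in situ in this document: HeLa Kyoto cells synchronized by double thymidine or nocodazole block, proteins quantified by TMT10plex mass spectrometry, three independent biological replicates.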
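For solubility change mitosis vs G1/S (difference of NP-40 vs SDS log2 ratios) in this document: synchronized HeLa Kyoto cells (double thymidine block for G1/S, nocodazole release for mitosis), protein amounts in NP-40 versus SDS lysates quantified by mass spectrometry, three biological replicates.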
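For solubility in G1/S (NP-40 vs SDS abundance) in this document: HeLa Kyoto cells arrested at G1/S by double thymidine block, proteins quantified by TMT10plex mass spectrometry in mild NP-40 versus SDS extracts, three biological replicates.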
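For thermal stability score vs G1/S (z-score of summed log2 fold changes over temperatures) in this document: synchronized HeLa Kyoto cells, proteins quantified by TMT10plex mass spectrometry, three biological replicates, mitosis taken 0.5 h after nocodazole release, G1/S directly after double thymidine block.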

For the sequence “MAVARLAAVAAWVPCRSWGWAAVPFGPHRGLSVLLARIPQRAPRWLPACRQKTSLSFLNRPDLPNLAYKKLKGKSPGIIFIPGYLSYMNGTKALAIEEFCKSLGHACIRFDYSGVGSSDGNSEESTLGKWRKDVLSIIDDLADGPQILVGSSLGGWLMLHAAIARPEKVVALIGVATAADTLVTKFNQLPVELKKEVEMKGVWSMPSKYSEEGVYNVQYSFIKEAEHHCLLHSPIPVNCPIRLLHGMKDDIVPWHTSMQVADRVLSTDVDVILRKHSDHRMREKADIQLLVYTIDDLIDKLSTIVN [ABHD10]”, the thermal stability score in series [1] (setting [5]) was 1.29; in series [1] (cell cycle stage: mitosis), -0.803. Moreover, in series [2], the “solubility change mitosis (log2)” value is -0.147. In addition, the figures for the melting temperature in series [3] (cell cycle stage: G1/S) and in series [3] (cell cycle stage: mitosis) were 57.4 °C and 57.6 °C, respectively. In series [4], the “solubility in G1/S (log2)” value was found to be 0.191.
Regarding “MDVENEQILNVNPADPDNLSDSLFSGDEENAGTEEIKNEINGNWISASSINEARINAKAKRRLRKNSSRDSGRGDSVSDSGSDALRSGLTVPTSPKGRLLDRRSRSGKGRGLPKKGGAGGKGVWGTPGQVYDVEEVDVKDPNYDDDQENCVYETVVLPLDERAFEKTLTPIIQEYFEHGDTNEVAEMLRDLNLGEMKSGVPVLAVSLALEGKASHREMTSKLLSDLCGTVMSTTDVEKSFDKLLKDLPELALDTPRAPQLVGQFIARAVGDGILCNTYIDSYKGTVDCVQARAALDKATVLLSMSKGGKRKDSVWGSGGGQQSVNHLVKEIDMLLKEYLLSGDISEAEHCLKELEVPHFHHELVYEAIIMVLESTGESTFKMILDLLKSLWKSSTITVDQMKRGYERIYNEIPDINLDVPHSYSVLERFVEECFQAGIISKQLRDLCPSRGRKRFVSEGDGGRLKPESY [PDCD4]”, the thermal stability score is 1.91 in series [1] (setting [5]) and 4.21 in series [1] (cell cycle stage: mitosis). The “solubility change mitosis (log2)” value in series [2] is -0.495. In addition, in series [3] (cell cycle stage: G1/S), the melting temperature is 48.8 °C. Further, the “solubility in G1/S (log2)” value in series [4] was found to be 0.349.
“MAGRSMQAARCPTDELSLTNCAVVNEKDFQSGQHVIVRTSPNHRYTFTLKTHPSVVPGSIAFSLPQRKWAGLSIGQEIEVSLYTFDKAKQCIGTMTIEIDFLQKKSIDSNPYDTDKMAAEFIQQFNNQAFSVGQQLVFSFNEKLFGLLVKDIEAMDPSILKGEPATGKRQKIEVGLVVGNSQVAFEKAENSSLNLIGKAKTKENRQSIINPDWNFEKMGIGGLDKEFSDIFRRAFASRVFPPEIVEQMGCKHVKGILLYGPPGCGKTLLARQIGKMLNAREPKVVNGPEILNKYVGESEANIRKLFADAEEEQRRLGANSGLHIIIFDEIDAICKQRGSMAGSTGVHDTVVNQLLSKIDGVEQLNNILVIGMTNRPDLIDEALLRPGRLEVKMEIGLPDEKGRLQILHIHTARMRGHQLLSADVDIKELAVETKNFSGAELEGLVRAAQSTAMNRHIKASTKVEVDMEKAESLQVTRGDFLASLENDIKPAFGTNQEDYASYIMNGIIKWGDPVTRVLDDGELLVQQTKNSDRTPLVSVLLEGPPHSGKTALAAKIAEESNFPFIKICSPDKMIGFSETAKCQAMKKIFDDAYKSQLSCVVVDDIERLLDYVPIGPRFSNLVLQALLVLLKKAPPQGRKLLIIGTTSRKDVLQEMEMLNAFSTTIHVPNIATGEQLLEALELLGNFKDKERTTIAQQVKGKKVWIGIKKLLMLIEMSLQMDPEYRVRKFLALLREEGASPLDFD [NSF]”: the thermal stability score stood at 0.564 in series [1] (setting [5]) and 0.772 in series [1] (cell cycle stage: mitosis). For the same sequence, the “solubility change mitosis (log2)” value in series [2] is -0.153. Also, the results for the melting temperature in series [3] (cell cycle stage: G1/S) and in series [3] (cell cycle stage: mitosis) were 49.8 °C and 49.6 °C, respectively. In addition, the “solubility in G1/S (log2)” value in series [4] came to 0.236.
For “MAVPFVEDWDLVQTLGEGAYGEVQLAVNRVTEEAVAVKIVDMKRAVDCPENIKKEICINKMLNHENVVKFYGHRREGNIQYLFLEYCSGGELFDRIEPDIGMPEPDAQRFFHQLMAGVVYLHGIGITHRDIKPENLLLDERDNLKISDFGLATVFRYNNRERLLNKMCGTLPYVAPELLKRREFHAEPVDVWSCGIVLTAMLAGELPWDQPSDSCQEYSDWKEKKTYLNPWKKIDSAPLALLHKILVENPSARITIPDIKKDRWYNKPLKKGAKRPRVTSGGVSESPSGFSKHIQSNLDFSPVNSASSEENVKYSSSQPEPRTGLSLWDTSPSYIDKLVQGISFSQPTCPDHMLLNSQLLGTPGSSQNPWQRLVKRMTRFFTKLDADKSYQCLKETCEKLGYQWKKSCMNQVTISTTDRRNNKLIFKVNLLEMDDKILVDFRLSKGDGLEFKRHFLKIKGKLIDIVSSQKIWLPAT [CHEK1]”, the thermal stability score stood at 1.82 in series [1] (setting [5]) and 1.62 in series [1] (cell cycle stage: mitosis). The “solubility change mitosis (log2)” value in series [2] is -0.07. The melting temperature in series [3] (cell cycle stage: G1/S) turned out to be 51.7 °C; in series [3] (cell cycle stage: mitosis), 51.9 °C. The “solubility in G1/S (log2)” value in series [4] came out at 0.104.
As to “MANVSKKVSWSGRDRDDEEAAPLLRRTARPGGGTPLLNGAGPGAARQSPRSALFRVGHMSSVELDDELLDPDMDPPHPFPKEIPHNEKLLSLKYESLDYDNSENQLFLEEERRINHTAFRTVEIKRWVICALIGILTGLVACFIDIVVENLAGLKYRVIKGNIDKFTEKGGLSFSLLLWATLNAAFVLVGSVIVAFIEPVAAGSGIPQIKCFLNGVKIPHVVRLKTLVIKVSGVILSVVGGLAVGKEGPMIHSGSVIAAGISQGRSTSLKRDFKIFEYFRRDTEKRDFVSAGAAAGVSAAFGAPVGGVLFSLEEGASFWNQFLTWRIFFASMISTFTLNFVLSIYHGNMWDLSSPGLINFGRFDSEKMAYTIHEIPVFIAMGVVGGVLGAVFNALNYWLTMFRIRYIHRPCLQVIEAVLVAAVTATVAFVLIYSSRDCQPLQGGSMSYPLQLFCADGEYNSMAAAFFNTPEKSVVSLFHDPPGSYNPLTLGLFTLVYFFLACWTYGLTVSAGVFIPSLLIGAAWGRLFGISLSYLTGAAIWADPGKYALMGAAAQLGGIVRMTLSLTVIMMEATSNVTYGFPIMLVLMTAKIVGDVFIEGLYDMHIQLQSVPFLHWEAPVTSHSLTAREVMSTPVTCLRRREKVGVIVDVLSDTASNHNGFPVVEHADDTQPARLQGLILRSQLIVLLKHKVFVERSNLGLVQRRLRLKDFRDAYPRFPPIQSIHVSQDERECTMDLSEFMNPSPYTVPQEASLPRVFKLFRALGLRHLVVVDNRNQVVGLVTRKDLARYRLGKRGLEELSLAQT [CLCN7]”, the thermal stability score is 0.135 in series [1] (setting [5]) and -0.102 in series [1] (cell cycle stage: mitosis). In addition, in series [2], the “solubility change mitosis (log2)” value is -0.116. Further, the values for the melting temperature in series [3] (cell cycle stage: G1/S) and in series [3] (cell cycle stage: mitosis) were 52.9 °C and 52.6 °C, respectively. Besides, the “solubility in G1/S (log2)” value in series [4] was -0.189.
On to “MRWILFIGALIGSSICGQEKFFGDQVLRINVRNGDEISKLSQLVNSNNLKLNFWKSPSSFNRPVDVLVPSVSLQAFKSFLRSQGLEYAVTIEDLQALLDNEDDEMQHNEGQERSSNNFNYGAYHSLEAIYHEMDNIAADFPDLARRVKIGHSFENRPMYVLKFSTGKGVRRPAVWLNAGIHSREWISQATAIWTARKIVSDYQRDPAITSILEKMDIFLLPVANPDGYVYTQTQNRLWRKTRSRNPGSSCIGADPNRNWNASFAGKGASDNPCSEVYHGPHANSEVEVKSVVDFIQKHGNFKGFIDLHSYSQLLMYPYGYSVKKAPDAEELDKVARLAAKALASVSGTEYQVGPTCTTVYPASGSSIDWAYDNGIKFAFTFELRDTGTYGFLLPANQIIPTAEETWLGLKTIMEHVRDNLY [CPA4]”, for which the thermal stability score in series [1] (setting [5]) came to 1.94; in series [1] (cell cycle stage: mitosis), 1.93. Besides, in series [2], the “solubility change mitosis (log2)” value amounted to 0.0829. Moreover, the figures for the melting temperature in series [3] (cell cycle stage: G1/S) and in series [3] (cell cycle stage: mitosis) were 57.4 °C and 58.7 °C, respectively. Further, the “solubility in G1/S (log2)” value in series [4] turned out to be 0.184.
